Data as given in PMC8199036, “Improved Tumor-Targeting with Peptidomimetic Analogs of Minigastrin ^177Lu-PP-F11N” (Cancers, 2021).
Like-named read-outs stand apart in the source and are kept apart here. Starred links: 1 amine or outer side, 2 acyl side, 3 side chain; linkers in the order of their positions; H or OH if unused. Non-standard residues stand in square brackets, D forms with d. Residues, ends and D or L forms follow the SMILES beside them. *: point of attachment. DOTA = O=C(O)CN1CCN(CC(=O)O)CCN(CC(=O)*)CCN(CC(=O)O)CC1; X1 = C[C@@H](C(=O)[*:2])n1cc([C@@H](CCC(=O)O)N[*:1])nn1; X2 = O=C(Cn1cc([C@H](Cc2ccc(O)cc2)N[*:1])nn1)[*:2]; Nle = CCCC[C@H](N)C(=O)O

Experiment: biodistribution in mice with CCK2R-positive xenografts
Format: in vivo, female CD1-nu mice
Conditions: female, CD1-nu, mouse, total radioactivity; for tissue uptake at 1 h / tissue uptake at 4 h / tissue uptake at 24 h: in vivo
[1] = 10 pmol, Stomach (CCK2R-positive) uptake
[2] = 10 pmol, Tumor (CCK2R-positive) uptake
[3] = tumor / blood, 10 pmol, read-out: Tumor-to-Blood ratio
[4] = tumor / kidneys, 10 pmol, read-out: Tumor-to-Kidneys ratio
[5] = tumor / muscle, 10 pmol, read-out: Tumor-to-Muscle ratio
[6] = tumor / stomach, 10 pmol, read-out: Tumor-to-Stomach ratio

SMILES: CCCC[C@H](NC(=O)[C@H](Cc1c[nH]c2ccccc12)NC(=O)Cn1cc([C@H](Cc2ccc(O)cc2)NC(=O)[C@H](C)n2cc([C@@H](CCC(=O)O)NC(=O)[C@@H](CCC(=O)O)NC(=O)[C@@H](CCC(=O)O)NC(=O)[C@@H](CCC(=O)O)NC(=O)[C@@H](CCC(=O)O)NC(=O)[C@@H](CCC(=O)O)NC(=O)CN3CCN(CC(=O)O)CCN(CC(=O)O)CCN(CC(=O)O)CC3)nn2)nn1)C(=O)N[C@@H](CC(=O)O)C(=O)N[C@@H](Cc1ccccc1)C(N)=O [NMG 3, DOTA-(DGlu)6 -Ψ[Tz]-Ala-Tyr-Ψ[Tz]-Gly-Trp-Nle-Asp-Phe-NH2] ({DOTA}-[dE][dE][dE][dE][dE][X1][X2]W[Nle]DF-NH2)
- tissue uptake at 1 h (10 pmol, Blood uptake): 0.51 %ID/g
- tissue uptake at 4 h (10 pmol, Blood uptake): 0.02 %ID/g
- tissue uptake at 24 h (10 pmol, Blood uptake): < 0.01 %ID/g
- tissue uptake at 1 h (10 pmol, Bone uptake): 0.45 %ID/g
- tissue uptake at 24 h (10 pmol, Bone uptake): 0.07 %ID/g
- tissue uptake at 1 h (10 pmol, Heart uptake): 0.19 %ID/g
- tissue uptake at 4 h (10 pmol, Heart uptake): 0.03 %ID/g
- tissue uptake at 24 h (10 pmol, Heart uptake): 0.01 %ID/g
- tissue uptake at 1 h (10 pmol, Intestines uptake): 0.25 %ID/g
- tissue uptake at 4 h (10 pmol, Intestines uptake): 0.1 %ID/g
- tissue uptake at 24 h (10 pmol, Intestines uptake): 0.02 %ID/g
- tissue uptake at 1 h (10 pmol, Kidneys uptake): 2.01 %ID/g
- tissue uptake at 4 h (10 pmol, Kidneys uptake): 1.74 %ID/g
- tissue uptake at 24 h (10 pmol, Kidneys uptake): 1.09 %ID/g
- tissue uptake at 1 h (10 pmol, Liver uptake): 0.16 %ID/g
- tissue uptake at 4 h (10 pmol, Liver uptake): 0.07 %ID/g
- tissue uptake at 24 h (10 pmol, Liver uptake): 0.04 %ID/g
- tissue uptake at 1 h (10 pmol, Lung uptake): 0.33 %ID/g
- tissue uptake at 4 h (10 pmol, Lung uptake): 0.07 %ID/g
- tissue uptake at 24 h (10 pmol, Lung uptake): 0.03 %ID/g
- tissue uptake at 1 h (10 pmol, Muscle uptake): 0.13 %ID/g
- tissue uptake at 24 h (10 pmol, Muscle uptake): 0.01 %ID/g
- tissue uptake at 1 h (10 pmol, Pancreas uptake): 0.49 %ID/g
- tissue uptake at 4 h (10 pmol, Pancreas uptake): 0.24 %ID/g
- tissue uptake at 24 h (10 pmol, Pancreas uptake): 0.17 %ID/g
- tissue uptake at 1 h (10 pmol, Spleen uptake): 0.13 %ID/g
- tissue uptake at 4 h (10 pmol, Spleen uptake): 0.05 %ID/g
- tissue uptake at 1 h [1]: 3.76 %ID/g
- tissue uptake at 4 h [1]: 3.11 %ID/g
- tissue uptake at 24 h [1]: 1.51 %ID/g
- tissue uptake at 1 h [2]: 9.43 %ID/g
- tissue uptake at 4 h [2]: 6.9 %ID/g
- tissue uptake at 24 h [2]: 5.24 %ID/g
- tissue uptake at 4 h (Blood uptake): 0.03 %ID/g
- tissue uptake at 4 h (Heart uptake): 0.05 %ID/g
- tissue uptake at 4 h (Intestines uptake): 0.07 %ID/g
- tissue uptake at 4 h (Kidneys uptake): 1.88 %ID/g
- tissue uptake at 4 h (Liver uptake): 0.09 %ID/g
- tissue uptake at 4 h (Lung uptake): 0.09 %ID/g
- tissue uptake at 4 h (Pancreas uptake): 0.19 %ID/g
- tissue uptake at 4 h (Spleen uptake): 0.06 %ID/g
- tissue uptake at 4 h (Stomach (CCK2R-positive) uptake): 0.65 %ID/g
- tissue uptake at 4 h (Tumor (CCK2R-positive) uptake): 3.43 %ID/g
- tissue to tissue ratio at 1 h [3]: 19.5 ± 7.58
- tissue to tissue ratio at 4 h [3]: 345 ± 34.6
- tissue to tissue ratio at 24 h [3]: 4370 ± 541
- tissue to tissue ratio at 1 h [4]: 4.7 ± 1.2
- tissue to tissue ratio at 4 h [4]: 3.99 ± 0.43
- tissue to tissue ratio at 24 h [4]: 3.65 ± 0.99
- tissue to tissue ratio at 1 h [5]: 79 ± 15.7
- tissue to tissue ratio at 4 h [5]: 505 ± 158
- tissue to tissue ratio at 24 h [5]: 437 ± 54.1
- tissue to tissue ratio at 1 h [6]: 2.66 ± 1.08
- tissue to tissue ratio at 4 h [6]: 2.22 ± 0.2
- tissue to tissue ratio at 24 h [6]: 3.06 ± 1.44
